Read-outs that look alike come from different tables or passages of the source. Positions of bridges follow the written chain, without caps; N, C: chain ends. Non-standard residues stand in square brackets, D forms with d. Residues, ends and D or L forms follow the SMILES beside them. Groups on a side chain read outwards from the residue. No end group written: not given here. *: point of attachment. Docosanoyl = CCCCCCCCCCCCCCCCCCCCCC(=O)*; Phe(4-NH2) = Nc1ccc(C[C@H](N)C(=O)O)cc1; PhLac = O=C(O)[C@@H](O)Cc1ccccc1; Aib = CC(C)(N)C(=O)O; Sar = CNCC(=O)O
Key:
[1] = assay type: in vitro ADME
Experimental: The peptides described above were incubated in PBS buffer or serum at 37° C. for up to 8 days. Samples were collected at different time points for PBS and plasma and half-life was determined. […] The peptides described above were incubated in PBS buffer or serum at 37° C. for up to 8 days. Samples were collected at different time points for PBS and plasma and half-life was determined. […] The shorter half-life seen when the acylated dipeptide was linked to […] might be due to a conformational change that facilitates cleavage when bound to plasma or alternatively to reduced detection of the acylated form when bound to plasma.

[2] = test system: diet induced obesity (DIO) mice; assay: In vivo effects of acyl chain length variants in DIO mice, single injection (Example 5); parameters: species or system mice (strain: C57B16); details: single s.c. injection, 10 nmol/kg, Day 0-7
Experimental: The Peptide D variants described above were also tested for their in vivo effects in diet induced obesity (DIO) mice (strain: C57B16). Nine groups of eight mice (with an initial average body weight of 50 g) were subcutaneously injected with vehicle only, or 10 nmol/kg of a Peptide D with C18 acylation via the dipeptide prodrug moiety (as described in Example 3), the parent peptide (i.e., Peptide D lacking acylation and lacking a dipeptide prodrug moiety), Peptide D with a C18 acyl group linked directly to the 4-amino phenylalanine at position 10, a Peptide D with C20 acylation via the dipeptide prodrug moiety, Peptide D with a C20 acyl group linked directly to the 4-amino phenylalanine at position 10, a Peptide D with C22 acylation via the dipeptide prodrug moiety, and Peptide D with a C22 acyl group linked directly to the 4-amino phenylalanine at position 10. The mice were 6 months old and had been on a high fat diet for approximately 2 months. Body weight was monitored for a week following injection and was measured on Day 0, 1, 2, 5, and 7 wherein Day 0 was the day of injection (FIG. 3A, 3B).

[3] = assay type: physicochemical; details: buffer
Experimental: Preliminary analyses were performed with these crude peptides for an approximation of their relative conversion rates in Phosphate Buffered Saline (PBS) buffer (pH, 7.2) using high performance liquid chromatography (HPLC) and MALDI analysis. The crude peptide samples were dissolved in the PBS buffer at a concentration of 1 mg/mL. […] Aliquots of 100 μL were drawn out at various time intervals, cooled to room temperature and analyzed by HPLC. […] The peptides described above were incubated in PBS buffer or serum at 37° C. for up to 8 days. Samples were collected at different time points for PBS and plasma and half-life was determined. […] The peptides described above were incubated in PBS buffer or serum at 37° C. for up to 8 days. Samples were collected at different time points for PBS and plasma and half-life was determined. […] The shorter half-life seen when the acylated dipeptide was linked to […] might be due to a conformational change that facilitates cleavage when bound to plasma or alternatively to reduced detection of the acylated form when bound to plasma.

[4] = test system: diet induced obesity (DIO) mice; assay: In vivo effects in DIO mice, single injection (Example 4); parameters: species or system mice (strain: C57B16); details: single s.c. injection, lower dose (10 nmol/kg), Day 0-5
Experimental: The Peptide D prodrug described in Example 3 was tested for its in vivo effects in diet induced obesity (DIO) mice (strain: C57B16). Nine groups of eight mice (with an initial average body weight of 50 g) were subcutaneously injected with vehicle only or 10 nmol/kg or 50 nmol/kg of a Peptide D acylated prodrug of Example 3, the parent peptide (i.e., Peptide D lacking an acylated dipeptide prodrug moiety), Peptide D with an acylated lysine residue linked directly the 4-amino phenylalanine at position 10, or the following peptide: YAib[…](γEγE-C16)[…]ib[…] (SEQ ID NO: 3082) (Peptide F). The mice were 6 months old and had been on a high fat diet for approximately 2 months. Body weight was monitored for a week following injection and was measured on Day 0, 1, 2, and 5, wherein Day 0 was the day of injection (FIG. 2).

GLP-1 receptor [5] = target: T1, GLP-1 receptor (Homo sapiens, UniProt P43220); assay: cell-based or functional assay
Target sequence in this assay (P43220 24-463 limits assumed): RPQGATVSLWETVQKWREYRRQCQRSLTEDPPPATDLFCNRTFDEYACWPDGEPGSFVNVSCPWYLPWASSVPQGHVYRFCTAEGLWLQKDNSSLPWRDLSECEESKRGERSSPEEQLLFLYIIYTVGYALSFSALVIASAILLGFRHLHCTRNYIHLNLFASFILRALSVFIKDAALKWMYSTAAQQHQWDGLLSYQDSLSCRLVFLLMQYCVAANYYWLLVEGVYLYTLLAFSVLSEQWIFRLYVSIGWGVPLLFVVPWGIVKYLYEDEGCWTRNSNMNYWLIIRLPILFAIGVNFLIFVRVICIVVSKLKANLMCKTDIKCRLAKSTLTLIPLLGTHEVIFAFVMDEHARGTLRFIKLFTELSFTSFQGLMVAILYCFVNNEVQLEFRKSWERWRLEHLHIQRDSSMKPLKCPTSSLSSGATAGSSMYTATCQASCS

glucagon receptor [6] = target: glucagon receptor (UniProt P47871); assay: cell-based or functional assay
GLP-1 receptor [7] = target: T1, GLP-1 receptor; assay: cell-based or functional assay; remark: listed apart in the source
Target sequence in this assay (P43220 24-463 limits assumed): as above

glucagon receptor [8] = target: glucagon receptor (UniProt P47871); assay: cell-based or functional assay; remark: listed apart in the source
[9] = test system: diet induced obesity (DIO) mice; assay: In vivo effects of daily prodrug injection in DIO mice (Example 6); parameters: species or system mice (strain: C57B16); details: s.c. daily for 5 days, 10 nmol/kg, after last injection on day 4 to day 7
Experimental: C22 acylated versions of Peptide D were also tested for their in vivo effects in diet induced obesity (DIO) mice (strain: C57B16) following daily administrations. Nine groups of eight mice (with an initial average body weight of 65 g) were subcutaneously injected daily for 5 days with vehicle only or 3 nmol/kg or 10 nmol/kg of Peptide D (parent peptide), a Peptide D with C22 acylation via the prodrug dipeptide moiety and Peptide D with a C22 acyl group linked directly to the 4-amino phenylalanine at position 10. The mice were 11 months old and had been on a high fat diet for approximately 2 months. Body weight was monitored for a week following injection and was measured on Day 0, 1, 2, 3, 4 and 7, wherein Day 0 was the day of injection (FIG. 4A, 4B).

GLP-1 receptor [10] = target: T1, GLP-1 receptor; assay: GLP-receptor luciferase bioassay of samples incubated in 20% human plasma (restored activity); assay type: cell-based; details: 37° C., 0 to 5 d
Experimental: To explore the possible formation of DKP and simultaneous regeneration of the parent drug, the above-mentioned peptides were incubated in 20% human plasma at 37° C. for approximately 5 days. Samples were collected at different time points (0, 1, 2, and 5 days).
Target sequence in this assay (P43220 24-463): as the sequence (P43220 24-463 limits assumed) above

GLP-1 receptor [11] = target: T2, GLP-1 receptor (UniProt P43220 24-463, limits assumed); assay: cell-based or functional assay
GIP receptor = target: T3, GIP receptor (UniProt P48546 22-466); assay: cell-based or functional assay
T3 sequence (looked up): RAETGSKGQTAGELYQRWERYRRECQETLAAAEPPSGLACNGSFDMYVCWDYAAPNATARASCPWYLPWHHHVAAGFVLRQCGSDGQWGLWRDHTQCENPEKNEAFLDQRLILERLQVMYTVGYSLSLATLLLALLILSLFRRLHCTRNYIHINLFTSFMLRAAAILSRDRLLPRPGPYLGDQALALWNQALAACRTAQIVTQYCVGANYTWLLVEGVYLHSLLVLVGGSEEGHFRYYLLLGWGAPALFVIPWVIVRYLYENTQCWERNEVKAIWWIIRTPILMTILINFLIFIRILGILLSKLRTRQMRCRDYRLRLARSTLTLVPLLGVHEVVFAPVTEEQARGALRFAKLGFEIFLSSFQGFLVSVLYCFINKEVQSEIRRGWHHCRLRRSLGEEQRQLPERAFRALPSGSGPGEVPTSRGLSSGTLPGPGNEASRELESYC

GLP-1 receptor [12] = target: T2, GLP-1 receptor; assay: cell-based or functional assay; remark: listed apart in the source
glucagon receptor [13] = target: T4, glucagon receptor (UniProt P47871 26-477, limits assumed); assay: cell-based or functional assay
GLP-1 receptor [14] = target: T2, GLP-1 receptor; assay: cell-based or functional assay; remark: listed apart in the source
glucagon receptor [15] = target: T4, glucagon receptor; assay: cell-based or functional assay; remark: listed apart in the source

Sequence of glucagon receptor (UniProt P47871) (P47871 26-477 limits assumed): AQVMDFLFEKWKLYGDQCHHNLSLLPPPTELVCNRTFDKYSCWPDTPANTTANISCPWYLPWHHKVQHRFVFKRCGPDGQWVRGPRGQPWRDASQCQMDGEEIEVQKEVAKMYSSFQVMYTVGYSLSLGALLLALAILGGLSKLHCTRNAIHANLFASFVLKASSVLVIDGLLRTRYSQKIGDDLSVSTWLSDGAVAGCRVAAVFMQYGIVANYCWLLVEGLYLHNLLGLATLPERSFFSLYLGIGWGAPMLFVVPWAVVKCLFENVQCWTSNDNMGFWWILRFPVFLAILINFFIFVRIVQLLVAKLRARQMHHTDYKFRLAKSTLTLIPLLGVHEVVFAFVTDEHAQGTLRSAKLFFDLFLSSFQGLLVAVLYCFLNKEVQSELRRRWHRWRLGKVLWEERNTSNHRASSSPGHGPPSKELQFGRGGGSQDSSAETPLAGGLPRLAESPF
T4 sequence (P47871 26-477 limits assumed): as above

CC[C@H](C)[C@H](NC(=O)[C@H](CO)NC(=O)[C@H](Cc1ccc(N)cc1)NC(=O)[C@H](CC(=O)O)NC(=O)[C@H](CO)NC(=O)[C@@H](NC(=O)[C@H](Cc1ccccc1)NC(=O)[C@@H](NC(=O)CNC(=O)[C@H](CCC(=O)O)NC(=O)C(C)(C)NC(=O)[C@@H](N)Cc1ccccc1)[C@@H](C)O)[C@@H](C)O)C(=O)N[C@@H](Cc1ccc(O)cc1)C(=O)N[C@@H](CC(C)C)C(=O)N[C@@H](CC(=O)O)C(=O)N[C@@H](CCCCN)C(=O)N[C@@H](CCC(N)=O)C(=O)N[C@@H](C)C(=O)N[C@@H](C)C(=O)NC(C)(C)C(=O)N[C@@H](CCC(=O)O)C(=O)N[C@@H](Cc1ccccc1)C(=O)N[C@H](C(=O)N[C@@H](CC(N)=O)C(=O)N[C@@H](Cc1c[nH]c2ccccc12)C(=O)N[C@@H](CC(C)C)C(=O)N[C@@H](CC(C)C)C(=O)N[C@@H](C)C(=O)NCC(=O)NCC(=O)N1CCC[C@H]1C(=O)N[C@@H](CO)C(=O)N[C@@H](CO)C(=O)NCC(=O)N[C@@H](C)C(=O)N1CCC[C@H]1C(=O)N1CCC[C@H]1C(=O)N1CCC[C@H]1C(=O)N[C@@H](CO)C(N)=O)C(C)C [Peptide D] (H-F[Aib]EGTFTSD[Phe(4-NH2)]SIYLDKQAA[Aib]EFVNWLLAGGPSSGAPPPS-NH2; N-terminus and C-terminus assumed)
half-life [1]: ~24 h
Body weight [2]: caused the most weight loss
half-life [3]: ~24 h
Body weight [4]: decline in weight through day 2 before weight began to increase slightly

D9, K12E16(Lactam) glucagon(6-39) Cex peptide (Table 1 peptide 4)
GLP-1 EC50 (GLP-1 receptor [5]): 119 nM
Glu IC50 (glucagon receptor [6]): 828 nM
GLP-1 EC50 (GLP-1 receptor [7]): 18 nM
Glucagon IC50 (glucagon receptor [8]): 828 nM

E9, K12E16(lactam) glucagon(6-39) Cex peptide (Table 1 peptide 2)
GLP-1 EC50 (GLP-1 receptor [5]): 63 nM
Glu IC50 (glucagon receptor [6]): 2010 nM
Glucagon IC50 (glucagon receptor [8]): 2010 nM

FAibEGTFTSDF(NH2)SIYLDKQAAAibEFVNWLLAGGPSSGAPPPS (F[Aib]EGTFTSD[Phe(4-NH2)]SIYLDKQAA[Aib]EFVNWLLAGGPSSGAPPPS-NH2; N-terminus assumed; SMILES CC[C@H](C)[C@H](NC(=O)[C@H](CO)NC(=O)[C@H](Cc1ccc(N)cc1)NC(=O)[C@H](CC(=O)O)NC(=O)[C@H](CO)NC(=O)[C@@H](NC(=O)[C@H](Cc1ccccc1)NC(=O)[C@@H](NC(=O)CNC(=O)[C@H](CCC(=O)O)NC(=O)C(C)(C)NC(=O)[C@@H](N)Cc1ccccc1)[C@@H](C)O)[C@@H](C)O)C(=O)N[C@@H](Cc1ccc(O)cc1)C(=O)N[C@@H](CC(C)C)C(=O)N[C@@H](CC(=O)O)C(=O)N[C@@H](CCCCN)C(=O)N[C@@H](CCC(N)=O)C(=O)N[C@@H](C)C(=O)N[C@@H](C)C(=O)NC(C)(C)C(=O)N[C@@H](CCC(=O)O)C(=O)N[C@@H](Cc1ccccc1)C(=O)N[C@H](C(=O)N[C@@H](CC(N)=O)C(=O)N[C@@H](Cc1c[nH]c2ccccc12)C(=O)N[C@@H](CC(C)C)C(=O)N[C@@H](CC(C)C)C(=O)N[C@@H](C)C(=O)NCC(=O)NCC(=O)N1CCC[C@H]1C(=O)N[C@@H](CO)C(=O)N[C@@H](CO)C(=O)NCC(=O)N[C@@H](C)C(=O)N1CCC[C@H]1C(=O)N1CCC[C@H]1C(=O)N1CCC[C@H]1C(=O)N[C@@H](CO)C(N)=O)C(C)C) [Parent peptide (Peptide D), Peptide D lacking acylation and lacking a dipeptide prodrug moiety]
Body weight [2]: declined through day 1, but returned toward the starting weight by day 7
Body weight [9]: began gaining weight
Body weight [4]: declined through day 1, but returned close to the starting weight by day 5
Change of activity over the time points in plasma (GLP-1 receptor [10]): No change

Y[Aib]EGTFTSDYSIYLDK([Sar-dK-C22 acyl])QAA[Aib]EFVNWLLAGGPSSGAPPPS-NH2 [Peptide G with C22-acylated (d)Lysine-sarcosine dipeptide on Lysine at position 16]
EC50-GLP, relative activity to GLP-1 standard (GLP-1 receptor [11]): 24.7%
EC50-GIP, relative activity to GIP standard (GIP receptor): 58.5%

Y[Aib]EGTFTSDYSK([Sar-dK-C22 acyl])YLDKQAA[Aib]EFVNWLLAGGPSSGAPPPS-NH2 [Peptide F of Example 8 with C22-acylated (d)Lysine-sarcosine dipeptide on Lysine at position 12]
EC50-GLP, relative activity to GLP-1 standard (GLP-1 receptor [11]): 17.4%
EC50-GIP, relative activity to GIP standard (GIP receptor): 30.2%

[PhLac]TSDYSKYLDERRAQDFVQWLMDT (lactam 7-11; not fully specified) [[PLA6, D9, K12E16(Lactam), D28]G(6-29) (Table 2 peptide 2)]
GLP-1 EC50 (GLP-1 receptor [12]): 177 nM
Glucagon IC50 (glucagon receptor [13]): 63 nM
GLP-1 EC50 (GLP-1 receptor [14]): 21 nM
Glucagon IC50 (glucagon receptor [15]): 13 nM

[PhLac]TSDYSKYLDERRAKDFVQWLMDT (lactam 11-15) [[PLA6, D9, E16K20(lactam), D28]G(6-29) (Table 2 peptide 1)]
Glucagon IC50 (glucagon receptor [13]): 10 to 30 nM
GLP-1 EC50 (GLP-1 receptor [14]): 4 nM
Glucagon IC50 (glucagon receptor [15]): 6 nM

Y[Aib]EGTFTSDYSIYLDKQAA[Aib]EFVNWLLAGGPSSGAPPPSK([Sar-dK-Docosanoyl])-NH2 [Peptide H with C22-acylated (d)Lysine-sarcosine dipeptide on Lysine at position 40]
EC50-GLP, relative activity to GLP-1 standard (GLP-1 receptor [11]): 37.1%
EC50-GIP, relative activity to GIP standard (GIP receptor): 81.6%

From patent US20160058881A1, “PRODRUGS WITH PROLONGED ACTION” (INDIANA UNIVERSITY RESEARCH AND TECHNOLOGY CORPORATION, priority 2013, published 2016)
